Results from paper doi:10.1101/511345 (bioRxiv, 2019).

B1: Qs IMEF cargo protein, purified alone and crystallised (natural protein)
chain: MKEELDAFHQIFTTTKEAIERFMAMLTPVIENAEDDHERLYYHHIYEEEEQRLSRLDVLIPLIEKFQDETDEGLFSPSNNAFNRLLQELNLEKFGLHNFIEHVDLALFSFTDEERQTLLKELRKDAYEGYQYVKEKLAEINARFDHDYADPHAHHDEHRDHLADMPSAGSSHEEVQPVAHKKKGFTVGSLIQ
B2: Quasibacillus thermotolerans (Qs) IMEF encapsulin capsid protein, assembled T = 4 shell (natural protein)
chain: MNKSQLYPDSPLTDQDFNQLDQTVIEAARRQLVGRRFIELYGPLGRGMQSVFNDIFMESHEAKMDFQGSFDTEVESSRRVNYTIPMLYKDFVLYWRDLEQSKALDIPIDFSVAANAARDVAFLEDQMIFHGSKEFDIPGLMNVKGRLTHLIGNWYESGNAFQDIVEARNKLLEMNHNGPYALVLSPELYSLLHRVHKDTNVLEIEHVRELITAGVFQSPVLKGKSGVIVNTGRNNLDLAISEDFETAYLGEEGMNHPFRVYETVVLRIKRPAAICTLIDPEE

Columns and labels:
crystal structure = target: the molecule itself; assay: crystal structure
cryo-EM structure = target: the molecule itself; assay: cryo-EM structure

Row | Protein | stoichiometry N (crystal structure) | stoichiometry N (cryo-EM structure)
1 | B1 | 2 | 
2 | B2 |  | 240
